For 1 molecule, binding relative to the Lyn SH2 domain results are on record in article PMC3666314.

This assay has as its target biotinylated PECAM-1 Y663,pY686 peptide (human). Kind of assay: flow cytometry bead-based binding assay.

B1: GST fusion protein containing the SH2 domain of Csk (domain or fragment)
chain: WFHGKITREQAERLLYPPETGLFLVRESTNYPGDYTLCVSCDGKVEHYRIMYHASKLSIDEEVYFENLMQLVEHYTSDADGLCTRLIKPK
Consider B1, for which the binding relative to the Lyn SH2 domain amounted to 2 fold.
